The values below come from patent US20040005639A1, “Glycerylaldehyde-3-phosphate dehyrogenase promoter inducing cell death” (priority 2000, published 2004).

Series [1] relates to CGCs. Description: Probability of survival of CGCs treated with AraC. The class given is cell-based, rat. Here is the method: (§1) CGCs were prepared according to the previous report (J. Neurochem., 66,928-935 (1996)). 16 hours after plating, the following were mixed and added to the non-serum cultures. In addition, it mixed beforehand and added in the culture so that the ratio of A and B might be set to 5:1, it might serve at a final concentration of 2 micro g/mL, C might be set to 1 micro L/micro g DNA and D might be set to 6 micro L/micro g DNA.
(§2) The cells were washed 20 hours after plating and the culture was continued for further 4 hours. […]
The probability of survival of CGCs treated with AraC (500 micro M) was 68% for 14 hours and 44% for 24 hours.

Series [2] relates to rat cerebellum origin granule cells (CGCs). As to the kind of experiment: Reporter assay: luciferase activity of CGCs transfected with promoter-pGL3-enhanser vector, after AraC addition. The following applies: for luciferase activity: vector without promoter set to 1.0. The class given is cell-based. Here is the method:
The plasmid which inserted promoter sequence (p104-pCR-Script Amp SK (+) and p302-pCR-Script Amp SK (+)) were cleaved at BsmBI site which exists just upstream of translation starting site of GAPDH protein and was created blunt-ends. The fragment was cleaved at the MluI site of 5′-end, sequence including promoter sequence was excised.
The pGL3-enhanser vector (Promega) was opened the MluI-SmaI site, and each promoter sequence excised here was inserted.
Reporter assay was performed with each vector as follows. Reporter assay used the primary culture cell of rat cerebellum origin granule cells (CGCs).
as §1
A) p104-pGL3-enhanser vector or p302-pGL3-enhanser vector both vector contains a firefly luciferase gene on the downstream of the promoter.
B) pRL-SV40 vector (it includes Renilla luciferase gene as an internal standard enzyme on the downstream of SV40 promoter currently activated constantly),
as §2

For `Nc1ccn([C@@H]2O[C@H](CO)[C@@H](O)[C@@H]2O)c(=O)n1` [AraC, cytosine arabinoside], the “probability of survival of CGCs” value in series [1] (AraC 10 micro M, 14 or 24-hours culture) was “more than 90%”; in series [1] (AraC 500 micro M, 14 hours), 68%; in series [1] (AraC 500 micro M, 24 hours), 44%.

B1: p104: 1.2 kb rat GAPDH promoter fragment amplified from the EcoRV genome library, SEQ ID NO: 1 (nucleic acid, listed as Rattus norvegicus)
DNA: ACTATAGGGCACGCGTGGTCGATGGCTTGGGTTGGTATCTACGACTAAACAAGAGAGAGAATGAGATTAATCTCCGCATAATAGTGTGTATCGGCTGAACATACACAGACACACACAGACACACACATACACACAGACACAGAAACATACGCTTAGCACACACAGAAGCACACATACACAGACAGAAACTCACATACACAGAGACCCACAGATATAGACACACAGAGACACAGATGCACACACAGACCTACTTACACACTCATAGACATAGATACACACACATAGACACACACTGACATATCAACACACCTACAGACACACACACCACACATACGCACACACACATACATGAACACACACATACACACGCACACACATACACACACATGGAAACACATGTTTTATGAAGATCTAGGAATTACCCCAATCACAGTAGAATGGATGCCTGTGTTGGGACCCAGGAGGGACAGGAAATAGAAATGGGCTAGGGGGCTGGAGAGATGGCTCAGAGGTTAAGAGCACTGTCTGCTCTTCCAGAGGTCCGGAGTTCAATTCCCAGAAACCACATGGTGGCTCACAACCATCTATAATCAGGTCTGGTGCCCTCTTCTGGCCTGCAGGCATACATGCAAGCAGAAAGCTGTATGATGTATACATAATAAATAAATAAATTTGAAAAAAAAGAAATGGGCTTAGGGGTGATGGGAAGAGAAGGACTCTGAAGGTCTGTAGACCGCTCATAAACTGGGGCAGACGTTGCTCCTGCTTGAGCACCTGACTTCCCAGTCCATTGCCACCATGGTCTTTGTGCCACCATGGCCAGTCCAAGGCCATCCTTAAACAGGCTGCAAAAAGTTTTAACTAGGACCATTAGATTGTCTCTTAAAACTATGAAAGGTTTTACTTTATTTCTCTCTCTCTCTCTCTCTCTCTCTCTCTCTCATTTTAAAAATATTTTTTCGGCTCTCTGCTCCTCCCTGTTCTAGAGACAGCCGCATCTTCTTGTGCAGTGCCAGCCTCGTCTCATAGACAAGATGGTGAAGGTCGGTGTGAACGGATTTGGCCGTATCGGACGCCTGGTTACCAGGGCTGCCTTCTCTTGTGACAAAGTGGACACTGTTGCC
modifications: CDS (1035)..(1124)
Turning to B1, in series [2] (24 hours after AraC addition, CGCs transformed by p104-pGL3-enhanser vector), the “increase of luciferase activity” value amounted to 1.7 times. Moreover, in series [2] (AraC 10 micro M (Table 2), result in words), the promoter activation entry is “neither of the two promoters (p104 and p302) showed significant activation”. In addition, the luciferase activity in series [2] (Table 1, AraC 500 micro M, culture time after addition 14 hours) is recorded as 1.7; in series [2] (Table 1, AraC 500 micro M, culture time after addition 24 hours), 2.4; in series [2] (Table 2, AraC 10 micro M, culture time after addition 14 hours) it was 1.2; in series [2] (Table 2, AraC 10 micro M, culture time after addition 24 hours) it was 1.3.
